Laboratory results taken from patent US20250376529A1 (Amgen, published 2025).
Changes are numbered by the printed parent chain.

T1: Rhesus GIPR (rhesus, UniProt F7E1R9 22-466)
T1 sequence: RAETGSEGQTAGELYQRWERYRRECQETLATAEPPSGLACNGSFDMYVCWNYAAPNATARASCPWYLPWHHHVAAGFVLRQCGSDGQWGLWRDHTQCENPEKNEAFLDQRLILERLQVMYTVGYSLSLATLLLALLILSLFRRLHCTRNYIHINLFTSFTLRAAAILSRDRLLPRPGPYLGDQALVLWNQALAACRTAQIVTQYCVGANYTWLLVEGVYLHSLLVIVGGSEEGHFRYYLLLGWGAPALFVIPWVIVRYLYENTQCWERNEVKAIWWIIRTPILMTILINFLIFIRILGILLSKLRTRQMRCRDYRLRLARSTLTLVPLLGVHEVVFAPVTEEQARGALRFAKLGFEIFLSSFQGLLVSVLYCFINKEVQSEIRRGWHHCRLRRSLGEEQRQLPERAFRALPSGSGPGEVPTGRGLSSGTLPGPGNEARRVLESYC

B1: 17H11.004.001 (antibody, human IgG1, kappa, N297G, V domains shown)
VH: QVQLQESGPGLVKPSETLSLTCTVSGGSISSYYWSWIRQPAGKGLEWIGRIYTSGSTNYNPSLKSRVTMSIDTSKNQFSLKLNSVTAADTAVYYCARDVAVAGFDYWGQGTLVTVSS
VL: DIQMTQSPSSVSASVGDRVTITCRASQGLIIWLAWYQQKPGKAPKLLIYAASSLQSGVPSRFSGSGSGTDFTLTISSLQPEDFATYYCQQTNSFPPTFGQGTKVEIKR
notes: also called iPS:359621; iPS:359623
B2: 4H9.004.005 (antibody, human IgG1, kappa, N297G, V domains shown)
VH: not shown
VL: DIQMTQSPSSLSASVGDRVTITCRASQGIRNELGWYQQKPGKAPKRLIYGASSLQSGVPSRFSGSGSGTEFTLTISSLQPEDFVTYYCLQHNSYPFTFGQGTKVDVKR
B3: 4H9.004.006 (antibody, human IgG1, kappa, N297G, V domains shown)
VH: not shown
VL: B2 VL with R46L
B4: 2G10_LC1.003 (antibody, human IgG1, kappa, N297G, V domains shown)
VH: not shown
VL: EIVMTQSPATLSVSPGERATLSCRASQSVSSNLAWYQQKPGQAPRLLIYGAATRATGIPARFSGSGSGTEFTLTISSLQSEDFAVYYCQQYNNWPLTFGGGTKVEIKR
B5: 2G10_LC1.004 (antibody, human IgG1, kappa, N297G, V domains shown)
VH: QVQLVESGGGVVQPGRSLRLSCAASGFTFSNYGMHWVRQAPGEGLEWVAAIWFDASDKYYADSVKGRFTISRDNSKNTLYLQMNSLRAEDTAVYYCARDQAIFGVVPDYWGQGTLVTVSS
VL: B4 VL
B6: 2G10_LC1 (antibody, human IgG1, kappa, N297G, V domains shown)
VH: B5 VH with A55G
VL: B4 VL with F62V
B7: 2G10_LC1.007 (antibody, human IgG1, kappa, N297G, V domains shown)
VH: not shown
VL: B4 VL with Q79E, S80P, W94F
B8: 2G10_LC1.008 (antibody, human IgG1, kappa, N297G, V domains shown)
VH: not shown
VL: B4 VL with Q79E, S80P, W94Y
B9: 2G10_LC1.009 (antibody, human IgG1, kappa, N297G, V domains shown)
VH: not shown
VL: B4 VL with Q79E, S80P
B10: 2G10_LC1.010 (antibody, human IgG1, kappa, N297G, V domains shown)
VH: not shown
VL: B4 VL with Q79E, S80P
B11: 2G10_LC1.005 (antibody, human IgG1, kappa, N297G, V domains shown)
VH: not shown
VL: B4 VL
B12: 5G12.006.005 (antibody, human IgG1, kappa, N297G, V domains shown)
VH: QVQLVESGGGVVQPGRSLRLSCAASGFTFSSYGIHWVRQAPGKGLEWVAVIWYDASNKFHADSVKGRFTISRDNSKNTLYLQMNSLRAEDSAMYFCARGKVAGMPEAFEIWGQGTKVTVSS
VL: DIQLTQSPSSLSASVGDRVTITCRASQTISRFLNWYQQKPGKAPELLIYVASSLQSGVPSRFSGSGSGTDFTLTISSLQPEDFATYYCQQSYSTLISFGQGTKLEIKR
B13: 5G12.006.006 (antibody, human IgG1, kappa, N297G, V domains shown)
VH: not shown
VL: B12 VL
B14: 18E3 (antibody, human IgG1, kappa, N297G)
heavy: not shown
light: EIVLTQSPGTLSLSPGERATLSCRASQSISYSYLAWYQQKPGQAPRLLIYGASSRATGIPDRFSGSGSGTDFTLTISRQEPDDFAVYYCQQYGSSPLTFGGGTKVEIKRTVAAPSVFIFPPSDEQLKSGTASVVCLLNNFYPREAKVQWKVDNALQSGNSQESVTEQDSKDSTYSLSSTLTLSKADYEKHKVYACEVTHQGLSSPVTKSFNRGEC

Target: T1, Rhesus GIPR
Assay: cell-based or functional assay

Compared with B1, B2 is 3-fold higher in “Rhesus GIPR CAMP Assay (Conc. mAb @ 60% Inhibition in nM)” value: 0.22 nM for the first, 0.65 nM for the second.

Going from B3 to B4, the “Rhesus GIPR CAMP Assay (Conc. mAb @ 60% Inhibition in nM)” value rises from 0.35 nM to 0.85 nM (2.4-fold).

B5 and B6 are within 1.5-fold of each other in “Rhesus GIPR CAMP Assay (Conc. mAb @ 60% Inhibition in nM)” value: 0.58 nM for the first, 0.67 nM for the second.

Going from B7 to B8, the “Rhesus GIPR CAMP Assay (Conc. mAb @ 60% Inhibition in nM)” value falls from 16.3 nM to 4 nM (4.1-fold).

B9 and B10 are within 1.5-fold of each other in “Rhesus GIPR CAMP Assay (Conc. mAb @ 60% Inhibition in nM)” value: 0.71 nM for the first, 0.86 nM for the second.

Going from B11 to B12, the “Rhesus GIPR CAMP Assay (Conc. mAb @ 60% Inhibition in nM)” value rises from 0.43 nM to 5.3 nM (12-fold).

Compared with B13, B14 is 3.6-fold lower in “Rhesus GIPR CAMP Assay (Conc. mAb @ 60% Inhibition in nM)” value: 0.9 nM for the first, 0.25 nM for the second.
